Changes are numbered by the printed parent chain.
T1: TNF-beta (human, UniProt P01374 35-205)
T1 construct: also called TNFβ; Tumour Necrosis Factor-beta
T1 sequence (looked up): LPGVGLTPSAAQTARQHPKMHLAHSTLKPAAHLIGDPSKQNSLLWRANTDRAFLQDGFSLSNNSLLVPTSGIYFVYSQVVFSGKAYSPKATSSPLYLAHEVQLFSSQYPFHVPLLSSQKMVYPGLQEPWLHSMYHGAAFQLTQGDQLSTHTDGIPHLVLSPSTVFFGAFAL

B1: I067F05 (scFv)
scFv: QVQLQQSGAEVKKPGSSVKVSCKASGGTFSSYAISWVRQAPGQGLEWMGRIIPIVNMANYAQKFQGRVTLTADKSTGTAYMELTSLRSEDTAVYYCARENYDSLTGYYGAFDIWGKGTMVTVSSGGGGSGGGGSGGGGSQSVLTQPASVSGSPGQSITISCTGTSSDVGGYNYVSWYQQHPGKAPKLMIYEGSKRPSGVSNRFSGSKSGNTASLTISGLQAEDEADYYCSSYTTRSTRVFGGGTKLTVLG
B2: I078D02 (scFv)
scFv: QVQLQQSGAEVKKPGASVKVSCKASGYTFTSYGISWVRQAPGQGLEWMGWISAYNGNTNYAQKLQGRVTMTTDTSTSTAYMELRSLRSDDTAVYYCARVYYDILTGYNLFFDYWGKGTMVTVSSGGGGSGGGGSGGGGSQSVLTQPASVSGSPGQSITISCTGTSSDVGGYNYVSWYQQHPGKAPKLMIYEGSKRPSGVSNRFSGSKSGNTASLTISGLQAEDEADYYCSSYTTRSTRVFGGGTKLTVLG
B3: I078H08 (scFv)
scFv: B2 scFv with Q5V, G8A, K116R, M119T
B4: I026C04-K (scFv)
scFv: QVQLVQSGAEVKKPGSSVKVSCRASGGSFNKHAISWVRQAPGRGLEWMGGILPMYGTANYAQKFQGRVTITADKLTNTVYMDLSRLRYEDTAVYYCARELGLSIVGATTGALDMWGKGTLVTVSSGGGGSGGGGSGGGGSAQSVLTQPPSVSAAPGQKVTISCSGSSSNIGNNYVSWYQQIPGTAPKLLIYENNKRPSGIPDRFSGSKSGASATLDITGLQTGDEADYYCGTWHSSQVVFGGGTKLTVLG
B5: I068C06 (scFv)
scFv: EVQLVQSGAEVKKPGSSVKVSCKASGGTVSSRTISWVRQAPGQGLEWMGGSLPPSGAPIYAQKFQGRVAITADALTNTAFMELRSLKSDDTAVYYCARDQGRYLDLWGKGTLVTVSSGGGGSGGGGSGGGGSAQAVLTQPSSVSGAPGQRVTISCTGSRSNIGAGYDVHWYQQLPGTAPKLLIYGNSNRPSGVPDRFSGSKSGTSASLAITGLQADDEADYYCQSYDTSLRGLFGTGTKVTVLG
notes: also called I0068C06; I0068CO6
B6: I031G10 (scFv)
scFv: QVQLVQSGAEVKKPGSSVKVSCRVSGGSFTDDSINWLRQAPGQGLEWVGGTIPLANRANYAQKFRDRVTITADELTATVFLELTSLRSDDTALYYCARSSPPKWYDALTGDSSYHSAMDVWGRGTLVTVSSGGGGSGGGGSGGGGSAQSVVTQPPSVSAAPGQKVTISCSGSTSNIGRNYVSWYQQLPGTATKLLIYDNNKRPSGIPDRFSGSKSGTSATLGITGLQTGDEADYYCGTWDSSLRIYVFGTGTKVTVLG
B7: I050B11 (scFv)
scFv: QVQLVQSGVEVKKPGASVKVSCKASGYTFSNHGISWVRQAPGQGLEWVGWISGHDDSTKYAQKFQGRVTMTADTSTSTAYIELRSLKSDDTAVYYCARPFYDTLTSYVFQYFDHWGQGTMVTVSSGGGGSGGGGSGGGGSALETTLTQSPDTLSLSPGERATLSCRASQSVTRGWVAWYQQKPGQAPRLLMYGTSRRATGVPDRFSGSESGTDFTLTISRLEPEDFAVYYCQQYATSPRTFGQGTRLEIKR
B8: I029F11 (scFv)
scFv: QVQLVQSRAEVKRPGASVKVSCKASGYRFGSYGITWVRQAPGQGLEWMGWISTRYGDTKSAQKVEGRVTLTTDTSTSTAYMELRSLRSDDTAVYYCARDGSYDILTGYYIDNYMDVWGRGTLVTVSSGGGGSGGGGSGGGGSQSVLTQPPSASGTPGQRVTISCSGSSSNIGSNTVNWYQRLPGAAPQLLIYNNDQRPSGIPDRFSGSKSGTSGSLVISGLQSEDEADYYCASWDDSLNGRVFGGGTKLTVLG
B9: I016F02 (scFv)
scFv: GVQLVESGAEVKKPGASVKVSCRTSGYTFTSNSFSWVRQAPGQGLEWMGGIIPIFGTANYAQKLQGRVTITADELTRTVYMDLSSLRSEDTAVYYCATGMGDHYGMDVWGRGTLVTVSSGGGGSGGGGSGGGGSQSVLTQPASVSGSPGQSITISCTGTSSDVGGYNYVSWYQQHPGKAPKLMIYEGSKRPSGVSNRFSGSKSGNTASLTISGLQAEDEADYYCSSYTTRSTRVFGGGTKLTVLG
B10: I031G08 (scFv)
scFv: QVQLVQSGAEVKKPGSSVKVSCRASGGSFIDDSINWLRQAPGQGLEWVGGTIPLANRANYAQKFRDRATITADELTATVFLELTSLRSDDTALYYCARSSPPKWYDALTGHSSYHSAMDVWGRGTLVTVSSGGGGSGGGGSGGGGSAQSVLTQPPSASGTPGQRVTISCSGTNSNIGGNTVNWYQQLPGTAPRLLIYSNNQRPSGVPDRFSGSKSGTSASLAISGLQSEDEADYYCAARDDRLNAHVVFGGGTKVTVLG
B11: I051C04 (scFv)
scFv: QVQLQQSGAEVKKPGSSVKVSCRTSGGTFSNYGLSWVRQAPGQGLEWMGGVIPISSTIKYGQKFQDRLTIAADDLTNTTFMELSSLRPEDTAVYYCARAATTSQKHNKYAYYFYGMDVWGQGTMVTVSSGGGGSGGGGSGGGGSAQSALTQPASVSGSPGQSITISCTGTSSDVGGYNYVSWYQQHPGKAPKLMIYEVSNRPSGVSNRFSGSKSGNTASLTISGLQAEDEADYYCSSYTSSSTLVFGGGTKVTVLG
notes: also called 1051C04
B12: I022D01 (scFv)
scFv: EVNLRESGGGVDQPGRSLRLSCAASGFTFSSYGMHWVRQAPGKGLEWVAVISYDGSNKYYADSVKGRFTISRDNSKNTLYLQMNSLRAEDTAVYYCAKDGYYDILTGYSYYGMDVWGQGPMVAVSSGGGGSGGGGSGGGGSSELTQDPAVSVALGQTVRITCQGDSLRSYYTNWFQQKPGQAPLLVVYAKNKRPSGIPDRFSGSSSGNTASLTITGAQAEDEADYYCNSRDSSGNHVVFGGGTKLTVLG
B13: I031C07 (scFv)
scFv: EVQLVQSGAEVKKPGSSVKVSCRASGGSFIDGSINWLRQAPGQGLEWVGGTIPLANRANYAQKFRDRVTITADELTAIVFLELTSLRSDDTALYYCARSSPPRWYDALTGDSSYHSAMDVWGQGTMVTVSSGGGGSGGGGSGGGGSAQSALTQPPSASGSPGQSVTISCSGTSSDIGDSNSVSWYQQHPGKAPKLLIYEVTKRPSGVPDRFAGSRSDNTASLTVSGLQTEDEADYYCSSSAARNHLVFGGGTKVTVLG
B14: I012A06 (scFv)
scFv: QVQLQESGPGVVKPSQTLSLTCTVSGVSISSDSYYWSWIRQPAGKGPEWIGRIYPTGSTNYNPSLKSRVTISVDTSKNQFSLQLTSVTAADTAVYYCARGRWDYDLLTGEHLGYYFDYWGRGTLVTVSSGGGGSGGGGSGGGGSALSSELTQDPAVSVALGQTVRITCQGDTLRNYYASWYQQKPGQAPVLVIHSRNNRPSGIPDRFSGSSSGTTASLTITGSQAEDEADYYCNSRDSSGNVIFGGGTKLTVLG

Each binder was assayed against T2, B Lymphocyte Stimulator, soluble form (human) (human, UniProt Q9Y275 134-285, biotinylated with NHS-biotin where used as biotinylated B Lymphocyte Stimulator) (assay: phage ELISA).
T2 construct: Coated on plastic, captured on streptavidin plates, amine-coupled to a CM5 chip or free in solution, depending on the assay; also called BLyS; immobilized B Lymphocyte Stimulator

Binder	binding result
B1	binds
B2	binds
B3	binds

Each binder was assayed against T3, TNF-alpha (human, UniProt P01375 77-233) (assay: phage ELISA).
T3 construct: also called TNFα; TNF-α
T3 sequence (P01375 77-233 limits assumed): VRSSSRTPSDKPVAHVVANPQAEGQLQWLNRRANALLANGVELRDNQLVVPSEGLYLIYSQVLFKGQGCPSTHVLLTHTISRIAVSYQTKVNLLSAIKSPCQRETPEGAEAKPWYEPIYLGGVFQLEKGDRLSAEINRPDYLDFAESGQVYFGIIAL

Binder	binding result
B1	no binding
B2	no binding
B3	no binding
B4	no binding
B5	no binding

Each binder was assayed against T4, TRAIL (human, UniProt P50591 114-281) (assay: phage ELISA).
T4 construct: also called TNF-related apoptosis inducing ligand
T4 sequence (P50591 114-281 limits assumed): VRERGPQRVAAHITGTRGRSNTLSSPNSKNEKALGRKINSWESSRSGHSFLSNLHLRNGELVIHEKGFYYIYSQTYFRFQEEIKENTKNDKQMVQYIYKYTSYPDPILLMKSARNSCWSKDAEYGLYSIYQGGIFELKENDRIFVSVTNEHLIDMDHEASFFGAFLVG

Binder	binding result
B1	no binding
B2	no binding
B3	no binding
B4	no binding
B5	no binding

The binders below were run against LIGHT (human, UniProt O43557 74-240, limits assumed) (assay: phage ELISA).
Sequence of LIGHT (O43557 74-240 limits assumed): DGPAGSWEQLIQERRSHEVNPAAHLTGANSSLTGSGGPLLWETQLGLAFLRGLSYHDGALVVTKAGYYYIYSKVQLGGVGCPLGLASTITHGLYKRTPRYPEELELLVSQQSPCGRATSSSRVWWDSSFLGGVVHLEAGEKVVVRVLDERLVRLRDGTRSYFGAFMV

Binder	binding result
B1	no binding
B2	no binding
B3	no binding
B4	no binding
B5	no binding

The binders below were run against T1, TNF-beta (assay: phage ELISA).

Binder	binding result
B1	no binding
B2	no binding
B3	no binding
B4	no binding
B5	no binding

Each binder was assayed against T5, biotinylated B Lymphocyte Stimulator, soluble form (human, UniProt Q9Y275 134-285, biotinylated with NHS-biotin, molar ratio 20:1 biotin:protein) (assay: phage scFv, receptor binding inhibition on IM9 cells).
T5 construct: also called bio-B Lymphocyte Stimulator; free B Lymphocyte Stimulator

Binder	binding result
B6	binds
B7	binds
B8	binds
B9	binds
B10	binds
B11	binds
B12	binds
B13	binds
B14	binds

From US20110293610A1 (published 2011)
